Reference: PMC11485749 (mAbs, 2024)
Numbering of substitutions follows the chain as printed. Read-outs that look alike come from different tables or passages of the source. One block for each binder: values may come before it.

How the values were obtained:
hCD200R1-iso4-Ref ECD [1] = molecular target: T1, hCD200R1-iso4-Ref ECD (Homo sapiens, UniProt Q8TD46)
[2] = molecular target: T2, recombinant MfCD200R1 ECD (Macaca fascicularis, UniProt G7NZT0); experiment: SPR
[3] = molecular target: T2, recombinant MfCD200R1 ECD; experiment: SPR; remark: listed apart in the source
[4] = molecular target: WT hCD200R1-iso4-Ref expressed on Expi293 cells (Homo sapiens, UniProt Q8TD46, strain); experiment: flow cytometry on cells
hCD200R1-iso4-Ref ECD [5] = molecular target: T1, hCD200R1-iso4-Ref ECD; experiment: SPR

T1 sequence (Q8TD46 29-265): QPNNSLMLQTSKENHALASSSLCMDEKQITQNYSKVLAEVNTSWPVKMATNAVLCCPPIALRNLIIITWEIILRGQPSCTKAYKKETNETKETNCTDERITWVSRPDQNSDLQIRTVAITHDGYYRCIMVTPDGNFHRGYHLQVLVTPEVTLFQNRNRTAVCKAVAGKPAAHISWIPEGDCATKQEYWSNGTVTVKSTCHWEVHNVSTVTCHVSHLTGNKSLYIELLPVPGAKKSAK
Chain of WT hCD200R1-iso4-Ref expressed on Expi293 cells (Q8TD46 whole entry, looked up, change not shown, the tested form may be a part): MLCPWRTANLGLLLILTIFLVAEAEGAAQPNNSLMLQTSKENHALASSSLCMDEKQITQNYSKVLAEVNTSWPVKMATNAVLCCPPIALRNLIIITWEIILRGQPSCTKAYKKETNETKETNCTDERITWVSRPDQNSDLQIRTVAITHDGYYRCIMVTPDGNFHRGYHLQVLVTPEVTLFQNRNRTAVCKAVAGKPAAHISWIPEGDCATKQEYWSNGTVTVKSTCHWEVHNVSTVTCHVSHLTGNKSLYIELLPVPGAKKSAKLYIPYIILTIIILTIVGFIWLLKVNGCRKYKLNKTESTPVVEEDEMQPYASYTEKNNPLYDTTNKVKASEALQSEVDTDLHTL

- Kd [2]: 2 nM
B1: 23ME-00611 (antibody, V domains shown)
VH: EVQLQESGPGLVKPSETLSLTCTVSGFSLTNYRVSWVRQPPGKGLEWLGVMYAGGGTNYNSVFKSRLTISKDNSKNQVSLKLSSVTAADTAVYYCARERPLTGVMDNWGQGTLVTVSS
VL: DIVLTQSPDSLAVSLGERATINCRASESVDYSGNSFMHWFQQKPGQPPKLLIYRASNLESGIPDRFSGSGSRTDFTLTISSLQAEDVAVYYCHQSNWDPPTFGGGTKVEIK
- Kd (hCD200R1-iso4-Ref ECD [1]): 1 nM

- binding result [3]: binds
B2: 23ME-00610_E93W (antibody, V domains shown)
VH: B1 VH with R33A, Y52W, N107Y
VL: B1 VL

- binding result [3]: binds
B3: 23ME-00610_A33R (antibody, V domains shown)
VH: B1 VH with Y52W, N107Y
VL: B1 VL with W97E

- binding result [2]: no binding (tested: up to 200 nM)
B4: 23ME-00610 (antibody, V domains shown)
VH: B1 VH with R33A, Y52W, N107Y
VL: B1 VL with W97E
- binding result [4]: binds
- Kd (hCD200R1-iso4-Ref ECD [5]): 0.1 nM
